From patent US20180236053A1 (CELLECTIS, published 2018) come the findings set out here.

The target in experiment [1] is CD38 antigen on the surface of cells (U266 CD38+, MOLP8, Daudi, T-ALL cell lines, activated T cells) (human, UniProt P28907 1-300). The experiment in a line: cell-based or functional assay.
Experiment [2] addresses T1, CD38-Fc protein (produced by LakePharma) (UniProt P28907 43-300, limits assumed).
T1 construct: Staining reagent for CAR detection by flow cytometry; also called CD38-Fc fusion protein; not shown: Fc part
The experiment in a line: flow cytometry, CD38-Fc fusion protein staining of purified CD38-deficient T cells transfected with CAR mRNA (FIG. 15). As to the method:
T cells were purified from buffy coat samples and activated using anti-CD3/CD28 coated beads and IL-2. CD38-1 TALEN mRNA was transfected in T cells at day 4 after activation, 6 days later CD38 negative cells were purified by using magnetic separation (Miltenyi). The day after, CAR mRNAs were transfected. The CAR expression and degranulation capacity of CART cells were assessed 24 hours after the transfection. CAR expression and cytotoxic capacity of CART cells were assessed 48 hours after the transfection.
All CARs were detected 24 h after transfection except the 25A10-V3 However, the latter expressed anti-CD38 CAR above the background. The 13F11-V2, 25A10-V1, 25A10-V2 and 28F5-V2 were highly expressed (more than 80%).
In general terms: In flow cytometry, cells or beads pass a laser one at a time.

The target of experiment [3] is T1, CD38-Fc protein (produced by LakePharma). As to the kind of experiment: flow cytometry, CD38 Fc staining of CD38/TRAC double KO T cells transduced with rLV (FIG. 27C). As to the method:
The parameters are the following: T cells were activated by using Dynabeads CD3-CD28, the culture were made by using medium Xvivo+5% human serum heat inactivated+IL-2 20 ng/ml, a double KO (DKO) CD38-TRAC was performed by using a ratio of 2 μg TALEN mRNA per million of cells (5 million cells/cuvette); the transduction was performed by using rLV from Vectalys(France) at a MOI of 5.
The screening of the 4 CARs 25A10-v1, -v2, 28F5-v1 and -v2 after rLV transduction in DKO T cells has shown that all the CARs were expressed at the T cell surface with a high efficiency (>40%) and 3 of them above 80% (FIG. 27C). RQR8 expression was correlated with CAR expression (FIG. 27A). Most of the T cells were CD38 negative when T cells have been transduced by CD38 CARs (FIG. 27A). It is shown also that 60-85% of T cells endowed with the above 4 CARs were DKO TRAC/CD38 (FIG. 27B).

B1: 16B5-V1 CAR (other)
chain: QAYLQQSGAELVRSGASVKMSCKASGYTFTSYNLHWVKQTPGQGLEWIGYIYPGNGGTNYNQKFKGKATLTADTSSSTAYMQISSLTSEDSAVYFCARGGIYYYGSSLDYWGQGTTLTVSSGGGGSGGGGSGGGGSNIVLTQSPASLAVSLGQRATISCRASESVDNYGTTFMYWYQQKPGQPPKLLIYLASNLESGVPARFSGSGSGTDFTLTIDPVEADDAATYYCQQNKEDPWTFGGGTKLEIKGLAVSTISSFFPPGYQIYIWAPLAGTCGVLLLSLVITLYCKRGRKKLLYIFKQPFMRPVQTTQEEDGCSCRFPEEEEGGCELRVKFSRSADAPAYQQGQNQLYNELNLGRREEYDVLDKRRGRDPEMGGKPRRKNPQEGLYNELQKDKMAEAYSEIGMKGERRRGKGHDGLYQGLSTATKDTYDALHMQALPPR
With B1, the “ratio of degranulation against U266 CD38+ and U266 CD38-” value (“ratio of degranulation” below) in experiment [1] was greater than 2 ratio.

B2: GMB005-V1 CAR (other)
chain: EVQLLESGGGLVQPGGSLRLSCAVSGFTFNSFAMSWVRQAPGKGLEWVSAISGSGGGTYYADSVKGRFTISRDNSKNTLYLQMNSLRAEDTAVYFCAKDKILWFGEPVFDYWGQGTLVTVSSASGGGGSGGGGSGGGGSEIVLTQSPATLSLSPGERATLSCRASQSVSSYLAWYQQKPGQAPRLLIYDASNRATGIPARFSGSGSGTDFTLTISSLEPEDFAVYYCQQRSNWPPTFGQGTKVEIKGLAVSTISSFFPPGYQIYIWAPLAGTCGVLLLSLVITLYCKRGRKKLLYIFKQPFMRPVQTTQEEDGCSCRFPEEEEGGCELRVKFSRSADAPAYQQGQNQLYNELNLGRREEYDVLDKRRGRDPEMGGKPRRKNPQEGLYNELQKDKMAEAYSEIGMKGERRRGKGHDGLYQGLSTATKDTYDALHMQALPPR
On to B2, for which the “ratio of degranulation” value in experiment [1] is greater than 2 ratio.

B3: 16B5-V2 CAR (other)
chain: QAYLQQSGAELVRSGASVKMSCKASGYTFTSYNLHWVKQTPGQGLEWIGYIYPGNGGTNYNQKFKGKATLTADTSSSTAYMQISSLTSEDSAVYFCARGGIYYYGSSLDYWGQGTTLTVSSGGGGSGGGGSGGGGSNIVLTQSPASLAVSLGQRATISCRASESVDNYGTTFMYWYQQKPGQPPKLLIYLASNLESGVPARFSGSGSGTDFTLTIDPVEADDAATYYCQQNKEDPWTFGGGTKLEIKTTTPAPRPPTPAPTIASQPLSLRPEACRPAAGGAVHTRGLDFACDIYIWAPLAGTCGVLLLSLVITLYCKRGRKKLLYIFKQPFMRPVQTTQEEDGCSCRFPEEEEGGCELRVKFSRSADAPAYQQGQNQLYNELNLGRREEYDVLDKRRGRDPEMGGKPRRKNPQEGLYNELQKDKMAEAYSEIGMKGERRRGKGHDGLYQGLSTATKDTYDALHMQALPPR
Regarding B3, the “ratio of degranulation” value in experiment [1] is greater than 2 ratio.

B4: 13F11-V2 CAR (other)
chain: QIQLVQSGPELKKPGETVKISCKASGYTFKKYGMNWVKQAPGKGLKWMGWINTNTGEPTYAEEFKGRFAFSLETSASTAYLQINNLKNEDTATYFCARWYYGSTPSSYTMDYWGQGTSVTVSSGGGGSGGGGSGGGGSETTVTQSPASLSVATGEKVTIRCITSTDIDDDMNWYQQKPGEPPKVLISEGNTLRPGVPSRFSSSGYGTDFVFTIENTLSEDVADYYCLQSNNMPYTFGGGTKLEIKTTTPAPRPPTPAPTIASQPLSLRPEACRPAAGGAVHTRGLDFACDIYIWAPLAGTCGVLLLSLVITLYCKRGRKKLLYIFKQPFMRPVQTTQEEDGCSCRFPEEEEGGCELRVKFSRSADAPAYQQGQNQLYNELNLGRREEYDVLDKRRGRDPEMGGKPRRKNPQEGLYNELQKDKMAEAYSEIGMKGERRRGKGHDGLYQGLSTATKDTYDALHMQALPPR
notes: Chimeric antigen receptor on T cells; signal peptide left out here
As for B4, in experiment [2], the “% of T cells stained by CD38-Fc (CAR expression)” value (from here on “% of T cells stained by CD38-Fc”) was greater than 80%.

B5: 25A10-V1 CAR (other)
chain: EVQLQQSGAELVRPGASVKLSCTASGFNIKDSLIHWVKQRPEQGLEWIGWIDPEDDKTKYAPKFQDKATLTADTSSNTAYLQLSTLTSEDTAIYYCVSRYINYYFAYWGQGTTLTVSSGGGGSGGGGSGGGGSDIVMTQSPSSLTVTAGEKVTMSCKSSQSLLHSGNQRNYLTWYQQKPGQPPKLLIYWASTRESGVPDRFTGSGSGTDFTLTISSVQAEDLAVYYCQNDYDYPYTFGGGTKLEIKGLAVSTISSFFPPGYQIYIWAPLAGTCGVLLLSLVITLYCKRGRKKLLYIFKQPFMRPVQTTQEEDGCSCRFPEEEEGGCELRVKFSRSADAPAYQQGQNQLYNELNLGRREEYDVLDKRRGRDPEMGGKPRRKNPQEGLYNELQKDKMAEAYSEIGMKGERRRGKGHDGLYQGLSTATKDTYDALHMQALPPR
notes: signal peptide left out here
For B5, the entries for the “% of T cells stained by CD38-Fc” value in experiment [2] and in experiment [3] were greater than 80% and greater than 40%, respectively. Besides, the “ratio of degranulation” value in experiment [1] was greater than 2 ratio.

B6: 25A10-V2 CAR (other)
chain: EVQLQQSGAELVRPGASVKLSCTASGFNIKDSLIHWVKQRPEQGLEWIGWIDPEDDKTKYAPKFQDKATLTADTSSNTAYLQLSTLTSEDTAIYYCVSRYINYYFAYWGQGTTLTVSSGGGGSGGGGSGGGGSDIVMTQSPSSLTVTAGEKVTMSCKSSQSLLHSGNQRNYLTWYQQKPGQPPKLLIYWASTRESGVPDRFTGSGSGTDFTLTISSVQAEDLAVYYCQNDYDYPYTFGGGTKLEIKTTTPAPRPPTPAPTIASQPLSLRPEACRPAAGGAVHTRGLDFACDIYIWAPLAGTCGVLLLSLVITLYCKRGRKKLLYIFKQPFMRPVQTTQEEDGCSCRFPEEEEGGCELRVKFSRSADAPAYQQGQNQLYNELNLGRREEYDVLDKRRGRDPEMGGKPRRKNPQEGLYNELQKDKMAEAYSEIGMKGERRRGKGHDGLYQGLSTATKDTYDALHMQALPPR
notes: as for B4
With B6, the “% of T cells stained by CD38-Fc” value in experiment [2] is greater than 80%; in experiment [3], greater than 40%.

B7: 13F11-V3 CAR (other)
chain: QIQLVQSGPELKKPGETVKISCKASGYTFKKYGMNWVKQAPGKGLKWMGWINTNTGEPTYAEEFKGRFAFSLETSASTAYLQINNLKNEDTATYFCARWYYGSTPSSYTMDYWGQGTSVTVSSGGGGSGGGGSGGGGSETTVTQSPASLSVATGEKVTIRCITSTDIDDDMNWYQQKPGEPPKVLISEGNTLRPGVPSRFSSSGYGTDFVFTIENTLSEDVADYYCLQSNNMPYTFGGGTKLEIKEPKSPDKTHTCPPCPAPPVAGPSVFLFPPKPKDTLMIARTPEVTCVVVDVSHEDPEVKFNWYVDGVEVHNAKTKPREEQYNSTYRVVSVLTVLHQDWLNGKEYKCKVSNKALPAPIEKTISKAKGQPREPQVYTLPPSRDELTKNQVSLTCLVKGFYPSDIAVEWESNGQPENNYKTTPPVLDSDGSFFLYSKLTVDKSRWQQGNVFSCSVMHEALHNHYTQKSLSLSPGKIYIWAPLAGTCGVLLLSLVITLYCKRGRKKLLYIFKQPFMRPVQTTQEEDGCSCRFPEEEEGGCELRVKFSRSADAPAYQQGQNQLYNELNLGRREEYDVLDKRRGRDPEMGGKPRRKNPQEGLYNELQKDKMAEAYSEIGMKGERRRGKGHDGLYQGLSTATKDTYDALHMQALPPR
As to B7, in experiment [1], the “ratio of degranulation” value is greater than 2 ratio.

B8: 13F11-V1 CAR (other)
chain: QIQLVQSGPELKKPGETVKISCKASGYTFKKYGMNWVKQAPGKGLKWMGWINTNTGEPTYAEEFKGRFAFSLETSASTAYLQINNLKNEDTATYFCARWYYGSTPSSYTMDYWGQGTSVTVSSGGGGSGGGGSGGGGSETTVTQSPASLSVATGEKVTIRCITSTDIDDDMNWYQQKPGEPPKVLISEGNTLRPGVPSRFSSSGYGTDFVFTIENTLSEDVADYYCLQSNNMPYTFGGGTKLEIKGLAVSTISSFFPPGYQIYIWAPLAGTCGVLLLSLVITLYCKRGRKKLLYIFKQPFMRPVQTTQEEDGCSCRFPEEEEGGCELRVKFSRSADAPAYQQGQNQLYNELNLGRREEYDVLDKRRGRDPEMGGKPRRKNPQEGLYNELQKDKMAEAYSEIGMKGERRRGKGHDGLYQGLSTATKDTYDALHMQALPPR
Turning to B8, the “ratio of degranulation” value in experiment [1] is greater than 2 ratio.

B9: 28F5-V1 CAR (other)
chain: QIQLVQSGPELKKPGETVKISCKASGYTFTKYGMNWVKQTPGKGLKWMGWINTNSGEPTYAEEFKGRFAFSLETSASTAYLQINNLKNEDTATYFCARGAYYRYDGEVSYYAMDYWGQGTSVTVSSGGGGSGGGGSGGGGSQIILTQSPAIMSASLGERVTMTCTATSSLSSSYLHWYQQKPGSSPKLWIYSTSHLASGVPARFSGGGSGTSYSLTISSMEAEDAATYYCHQYHLSPYTFGGGTKLEIKGLAVSTISSFFPPGYQIYIWAPLAGTCGVLLLSLVITLYCKRGRKKLLYIFKQPFMRPVQTTQEEDGCSCRFPEEEEGGCELRVKFSRSADAPAYQQGQNQLYNELNLGRREEYDVLDKRRGRDPEMGGKPRRKNPQEGLYNELQKDKMAEAYSEIGMKGERRRGKGHDGLYQGLSTATKDTYDALHMQALPPR
notes: as for B4
Take B9: the “ratio of degranulation” value in experiment [1] is greater than 2 ratio. In experiment [3], the “% of T cells stained by CD38-Fc” value is greater than 40%.
